Laboratory results as given in article PMC11584650, “An inhibitory segment within G-patch activators tunes Prp43-ATPase activity during ribosome assembly” (Nature Communications, 2024).

Tests used:
[1] = molecular target: His6-Prp43 (S. cerevisiae) (UniProt P53131)
[2] = molecular target: His6-Prp43 (S. cerevisiae) (UniProt P53131); remark: listed apart in the source

His6-Prp43 (S. cerevisiae), sequence (P53131 whole entry): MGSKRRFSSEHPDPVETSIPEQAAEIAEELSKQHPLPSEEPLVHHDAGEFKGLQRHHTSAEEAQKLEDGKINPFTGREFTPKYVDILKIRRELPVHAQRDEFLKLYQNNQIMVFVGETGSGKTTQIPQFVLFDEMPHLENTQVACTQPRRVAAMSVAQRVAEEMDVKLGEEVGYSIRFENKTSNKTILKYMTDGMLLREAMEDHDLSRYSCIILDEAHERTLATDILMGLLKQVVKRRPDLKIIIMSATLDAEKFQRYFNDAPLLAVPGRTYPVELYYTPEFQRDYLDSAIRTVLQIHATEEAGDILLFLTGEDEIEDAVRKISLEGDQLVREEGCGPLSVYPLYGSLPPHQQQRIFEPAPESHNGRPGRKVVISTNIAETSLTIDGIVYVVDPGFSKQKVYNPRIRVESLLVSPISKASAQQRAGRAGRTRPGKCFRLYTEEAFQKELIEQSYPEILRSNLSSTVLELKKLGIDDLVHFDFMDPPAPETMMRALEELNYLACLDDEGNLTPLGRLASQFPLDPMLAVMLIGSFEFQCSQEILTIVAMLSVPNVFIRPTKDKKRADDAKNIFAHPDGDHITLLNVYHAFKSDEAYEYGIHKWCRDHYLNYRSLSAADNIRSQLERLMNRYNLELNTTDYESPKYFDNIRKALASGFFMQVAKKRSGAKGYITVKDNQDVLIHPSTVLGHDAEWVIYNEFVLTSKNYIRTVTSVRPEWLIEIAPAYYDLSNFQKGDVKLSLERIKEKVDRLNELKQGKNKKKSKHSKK

Substance	stimulation of Prp43 ATPase activity by Tma23^G added at a 1:1 or 10:1 molar ratio (NADH-coupled assay, 2.5 mM ATP) [1]	ATPase activity of the Prp43-T^G fusion against Prp43 with an equimolar amount of Tma23^G [2]	ATPase activity of the Prp43-P^G fusion against Prp43 with an equimolar amount of Pxr1^G [2]
GST-Tma23^G (domain or fragment)	3 fold	30 fold	–
GST-Pxr1^G (domain or fragment)	–	–	2 fold
